T1: HuCD122-His (human, UniProt P14784 27-239)
T1 construct: Captured on an anti-His CM5 chip; also called interleukin 2 receptor beta; IL2RP
T1 sequence (looked up): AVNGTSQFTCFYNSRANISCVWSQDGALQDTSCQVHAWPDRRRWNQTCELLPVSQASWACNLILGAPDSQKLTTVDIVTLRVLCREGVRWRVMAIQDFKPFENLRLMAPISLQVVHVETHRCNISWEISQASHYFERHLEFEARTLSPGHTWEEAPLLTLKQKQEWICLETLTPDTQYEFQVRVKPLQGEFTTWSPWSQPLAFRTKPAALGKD


Columns and labels:
[1] = target: IL-2 receptor on cells of human PBMC (NK cells, CD4 T cells, CD8 T cells, Tregs); assay: cell-based or functional assay
HuCD122-His = target: T1, HuCD122-His; assay: SPR (Biacore), HuCD122-His captured on anti-His CM5 chip, analyte 31.25 nM to 1 µM, steady-state fit
Procedure: Briefly, a biacore instrument was used with a CM5 chip comprising an immobilized anti-His antibody. Ligand HuCD122-His was injected at a dilution of […] to be captured on the chip. Proteins CD20-2-T5A-NKCE4-v2, CD20-2-T6AB3-NKCE4-v2A, CD20-2-T13A-NKCE4-v2A was then injected during 120 s with a flow of 10 μL/min, at a concentrations range from 31.25 nM to 1 μM. The interaction between these proteins and HuCD122-His was studied with a dissociation time of 600 s. The chip was then regenerated with NaOH 10 mM at a flow of 40 μL/min during 10 sec.
Date has been analysed under the steady-state model, that seemed to be the most accurate regarding sensograms appearance.

% of pSTAT5+ cells among NK cells [1] [log]	Kd (HuCD122-His) [nM]	Binder
~1	–	CD20-4-T5-NKCE4-v3 (bispecific antibody) light: not shown heavy: not shown DIQMTQSPSSLSASVGDRVTITCRASQDISNYLNWYQQKPGKAPKLLIYYTSRLHSGVPSRFSGSGSGTDFTFTISSLQPEDIATYFCQQGNTRPWTFGGGTKVEIKASTKGPSVFPLAPSSKSTSGGTAALGCLVKDYFPEPVTVSWNSGALTSGVHTFPAVLQSSGLYSLSSVVTVPSSSLGTQTYICNVNHKPSNTKVDKRVEPKSCDKTHSGSSSSGSSSSGSSSSTKKTQLQLEHLLLDLQMILNGINNYKNPKLTAMLAKKFYMPKKATELKHLQCLEEELKPLEEVLNLAQSKNFHLRPRDLISNINVIVLELKGSETTFMCEYADETATIVEFLNRWITFCQSIISTLT
~1	–	CD20-3-T5-NKCE4-v3 (bispecific antibody) light: not shown heavy: not shown DIQMTQSPSSLSASVGDRVTITCRASQDISNYLNWYQQKPGKAPKLLIYYTSRLHSGVPSRFSGSGSGTDFTFTISSLQPEDIATYFCQQGNTRPWTFGGGTKVEIKASTKGPSVFPLAPSSKSTSGGTAALGCLVKDYFPEPVTVSWNSGALTSGVHTFPAVLQSSGLYSLSSVVTVPSSSLGTQTYICNVNHKPSNTKVDKRVEPKSCDKTHSGSSSSGSSSSGSSSSTKKTQLQLEHLLLDLQMILNGINNYKNPKLTAMLAKKFYMPKKATELKHLQCLEEELKPLEEVLNLAQSKNFHLRPRDLISNINVIVLELKGSETTFMCEYADETATIVEFLNRWITFCQSIISTLT
–	2840	CD20-2-T6AB3-NKCE4-v2A (bispecific antibody, human IgG1, kappa) chain 1: not shown chain 2: EVQLVESGGGLVQPDRSLRLSCAASGFTFHDYAMHWVRQAPGKGLEWVSTISWNSGTIGYADSVKGRFTISRDNAKNSLYLQMNSLRAEDTALYYCAKDIQYGNYYYGMDVWGQGTTVTVSSASTKGPSVFPLAPSSKSTSGGTAALGCLVKDYFPEPVTVSWNSGALTSGVHTFPAVLQSSGLYSLSSVVTVPSSSLGTQTYICNVNHKPSNTKVDKRVEPKSCDKTHTCPPCPAPEAEGAPSVFLFPPKPKDTLMISRTPEVTCVVVDVSHEDPEVKFNWYVDGVEVHNAKTKPREEQYNSTYRVVSVLTVLHQDWLNGKEYKCKVSNKALPSSIEKTISKAKGQPREPQVYTLPPSREEMTKNQVSLTCLVKGFYPSDIAVEWESNGQPENNYKTTPPVLDSDGSFFLYSKLTVDKSRWQQGNVFSCSVMHEALHNHYTQKSLSLSPGSTGSQVQLVQSGAEVKKPGSSVKVSCKASGYTFSDYVINWVRQAPGQGLEWMGEIYPGSGTNYYNEKFKAKATITADKSTSTAYMELSSLRSEDTAVYYCARRGRYGLYAMDYWGQGTTVTVSSRTVAAPSVFIFPPSDEQLKSGTASVVCLLNNFYPREAKVQWKVDNALQSGNSQESVTEQDSKDSTYSLSSTLTLSKADYEKHKVYACEVTHQGLSSPVTKSFNRGEC chain 3: DIQMTQSPSSLSASVGDRVTITCRASQDISNYLNWYQQKPGKAPKLLIYYTSRLHSGVPSRFSGSGSGTDFTFTISSLQPEDIATYFCQQGNTRPWTFGGGTKVEIKASTKGPSVFPLAPSSKSTSGGTAALGCLVKDYFPEPVTVSWNSGALTSGVHTFPAVLQSSGLYSLSSVVTVPSSSLGTQTYICNVNHKPSNTKVDKRVEPKSCDKTHSGSSSSGSSSSGSSSSTKKTQLQLEHLLLDLQMILNGINNYKNPKLTAMLTKKFYMPKKATELKHLQCLEEELKPLEEVLNLAQSKNFHLRPRDLISNINVIVLELKGSETTFMCEYADETATIVEFLNRWITFAQSIISTLT

The remaining lines, values behind:

Binder	% of pSTAT5+ cells among NK cells [1] [log]	Kd (HuCD122-His) [nM]
CD20-1-T5-NKCE4-v3 (bispecific antibody) light: not shown heavy: not shown DIQMTQSPSSLSASVGDRVTITCRASQDISNYLNWYQQKPGKAPKLLIYYTSRLHSGVPSRFSGSGSGTDFTFTISSLQPEDIATYFCQQGNTRPWTFGGGTKVEIKASTKGPSVFPLAPSSKSTSGGTAALGCLVKDYFPEPVTVSWNSGALTSGVHTFPAVLQSSGLYSLSSVVTVPSSSLGTQTYICNVNHKPSNTKVDKRVEPKSCDKTHSGSSSSGSSSSGSSSSTKKTQLQLEHLLLDLQMILNGINNYKNPKLTAMLAKKFYMPKKATELKHLQCLEEELKPLEEVLNLAQSKNFHLRPRDLISNINVIVLELKGSETTFMCEYADETATIVEFLNRWITFCQSIISTLT	~1	–
CD20-2-T5-NKCE4-v3 (bispecific antibody) light: not shown heavy: not shown DIQMTQSPSSLSASVGDRVTITCRASQDISNYLNWYQQKPGKAPKLLIYYTSRLHSGVPSRFSGSGSGTDFTFTISSLQPEDIATYFCQQGNTRPWTFGGGTKVEIKASTKGPSVFPLAPSSKSTSGGTAALGCLVKDYFPEPVTVSWNSGALTSGVHTFPAVLQSSGLYSLSSVVTVPSSSLGTQTYICNVNHKPSNTKVDKRVEPKSCDKTHSGSSSSGSSSSGSSSSTKKTQLQLEHLLLDLQMILNGINNYKNPKLTAMLAKKFYMPKKATELKHLQCLEEELKPLEEVLNLAQSKNFHLRPRDLISNINVIVLELKGSETTFMCEYADETATIVEFLNRWITFCQSIISTLT	~1	–
CD20-2-T5A-NKCE4-v2 (bispecific antibody, human IgG1, kappa) chain 1: not shown chain 2: not shown chain 3: DIQMTQSPSSLSASVGDRVTITCRASQDISNYLNWYQQKPGKAPKLLIYYTSRLHSGVPSRFSGSGSGTDFTFTISSLQPEDIATYFCQQGNTRPWTFGGGTKVEIKASTKGPSVFPLAPSSKSTSGGTAALGCLVKDYFPEPVTVSWNSGALTSGVHTFPAVLQSSGLYSLSSVVTVPSSSLGTQTYICNVNHKPSNTKVDKRVEPKSCDKTHSGSSSSGSSSSGSSSSTKKTQLQLEHLLLDLQMILNGINNYKNPKLTAMLAKKFYMPKKATELKHLQCLEEELKPLEEVLNLAQSKNFHLRPRDLISNINVIVLELKGSETTFMCEYADETATIVEFLNRWITFCQSIISTLT	–	1810

From US20250002601A1 (INNATE PHARMA, published 2025)
